According to US20230192860A1 (Bristol-Myers Squibb, published 2023):
Residue numbers refer to the chain shown, from its start. Numbers in names are those of the source.

B1: P1-068748 (antibody, human IgG1, kappa, V domains shown)
VH: QVQLVESGGGVVQPGRSLRLSCAASGFTFSHHAMHWVRQAPGKGLEWVAIIWYDGSNDDYADSVKGRFTISRDNSKNTLYLQMNSLRAEDTAVYYCARDSGFYDSYYFDYWGQGTLVTVSS
VL: EIVLTQSPATLSLSPGERATLSCRASQSVSSSYLAWYQQKPGQAPRLLIYDASNRATGIPARFSGSGSGTDFTLTISSLEPEDFATYYCQQYNSYPYTFGQGTKLEIKR
notes: IgG1.3; also called P1-068748-6
B2: P1-061029 (antibody, human IgG1, kappa)
heavy: EVQLVESGGGLVQPGKSLRLSCAASGFTLDDYAMHWVRQAPGKGLEWVSGINWNSANIGYADSVKGRFTISRDNAKNSLYLQMNSLRTEDTALYYCAKVPGYSGGWIDAFDVWGQGTMVTVSSASTKGPSVFPLAPSSKSTSGGTAALGCLVKDYFPEPVTVSWNSGALTSGVHTFPAVLQSSGLYSLSSVVTVPSSSLGTQTYICNVNHKPSNTKVDKRVEPKSCDKTHTCPPCPAPEAEGAPSVFLFPPKPKDTLMISRTPEVTCVVVDVSHEDPEVKFNWYVDGVEVHNAKTKPREEQYNSTYRVVSVLTVLHQDWLNGKEYKCKVSNKALPAPIEKTISKAKGQPREPQVYTLPPSREEMTKNQVSLTCLVKGFYPSDIAVEWESNGQPENNYKTTPPVLDSDGSFFLYSKLTVDKSRWQQGNVFSCSVMHEALHNHYTQKSLSLSPG
light: not shown
notes: also called P1-061029-18; P1-061029.IgG1.3
B3: P1-068757 (antibody, human IgG1, kappa, V domains shown)
VH: EVQLVESGGGLVQPGKSLRLSCAASGFTLEDEAMHWVRQAPGKGLEWVSGINWNSEEIGYADSVKGRFTISRDNAKNSLYLQMNSLRTEDTALYYCAKVPGYSGGWIDAEDDWGQGTMVTVSS
VL: not shown
notes: also called P1-068757-9; 029 progeny
B4: P1-070868 (P1-068761_E55A) (antibody, human IgG1, kappa, V domains shown)
VH: B3 VH with E56A, G104H, D112V
VL: not shown
notes: also called P1-070868-6
B5: P1-070864 (P1-068761_E30D) (antibody, human IgG1, kappa, V domains shown)
VH: B3 VH with E30D, G104H, D112V
VL: not shown
notes: also called P1-070864-3
B6: P1-068771 (antibody, human IgG1, kappa, V domains shown)
VH: B3 VH with E56H
VL: not shown
notes: also called P1-068771-10; 029 progeny
B7: P1-068761 (antibody, human IgG1, kappa)
heavy: B2 heavy with D30E, Y32E, A56E, N57E, G104H, F110E
light: not shown
notes: also called P1-068761-20
B8: P1-068765 (antibody, human IgG1, kappa, V domains shown)
VH: B3 VH with L29D, E32Y
VL: not shown
notes: also called P1-068765-10; 029 progeny
B9: P1-068775 (antibody, human IgG1, kappa, V domains shown)
VH: B3 VH with N52D, G104H
VL: not shown
notes: also called P1-068775-8; 029 progeny
B10: P1-061520 (41F11 VK_A64G) (antibody, V domains shown)
VH: QVQLVESGGGLVKPGGSLRLSCAASGFTFSDYYMSWIRQAPGKGLEWVSYISNSGSPIYYADSVKGRFTISRDNAKNSLYLQMNSLRAEDTAVYYCARDLPGWYFDLWGRGTLVTVSS
VL: EIVLTQSPATLSLSPGERATLSCRASQSVSSYLAWYQQKPGQAPRLLIYDASNRATGIPARFSGSGSGTDFTLTISSLEPEDFAVYYCQQRNNWPRTFGQGTKVEIKR
notes: tied through the name 41F11 and the A64G change; also called P1-061520-21; VISTA.4.A64G
B11: P1-070976 (41F11_VH_T28P_Y50W_S55E_D95H_L96E_P97E_Y100E; Vk_A64G) (antibody, V domains shown)
VH: B10 VH with T28P, Y50W, S56E, D99H, L100E, P101E, Y104E
VL: EIVLTQSPATLSLSPGERATLSCRASQSVSSYLAWYQQKPGQAPRLLIYDASNRATGIPARFSGSGSGTDFTLTISSLEPEDFAVYYCQQRNNWPRTFGQGTKVEIK
notes: also called P1-070976-11
B12: P1-070868 (P1-068761_E55A) (antibody, human IgG1, kappa, V domains shown)
VH: B3 VH with E56A, G104H, D112V
VL: not shown
notes: IgG1.3; also called P1-070868-6
B13: P1-070916 (P1-068767_D52N_E55A) (antibody, human IgG1, kappa, V domains shown)
VH: B3 VH with E32Y, E56A, E57N
VL: not shown
notes: IgG1.3; also called P1-070916-6
B14: P1-070906 (P1-068767_D52N) (antibody, human IgG1, kappa, V domains shown)
VH: B3 VH with E32Y, E57N
VL: not shown
notes: IgG1.3; also called P1-070906-6
B15: P1-070908 (P1-068767_E55A) (antibody, human IgG1, kappa, V domains shown)
VH: B3 VH with E32Y, N52D, E56A, E57N
VL: not shown
notes: IgG1.3; also called P1-070908-6
B16: P1-070914 (P1-068767_E30D_D52N) (antibody, human IgG1, kappa, V domains shown)
VH: B3 VH with E30D, E32Y, E57N
VL: not shown
notes: IgG1.3; also called P1-070914-3

Target: T1, monovalent hVISTA-ECD (amino acids 32-193 of SEQ ID NO: 1 with a 7xHis tail) (human, UniProt Q9H7M9 33-193)
T1 construct: analyte of the SPR assays; also called huVISTA-His; human VISTA-ECD
T1 sequence (Q9H7M9 other isoform, or with tags, fused parts or gaps limits assumed): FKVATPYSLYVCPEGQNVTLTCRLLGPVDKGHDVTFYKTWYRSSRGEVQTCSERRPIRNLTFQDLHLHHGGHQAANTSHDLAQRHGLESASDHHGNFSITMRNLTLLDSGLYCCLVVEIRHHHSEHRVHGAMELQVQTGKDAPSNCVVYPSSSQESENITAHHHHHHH
Experiment: SPR 37C, Ab on Protein A, hVISTA-ECD 50-5 nM, pH 6.0, average
Outline: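 Biacore T100 at 37C: antibodies (IgG1.3 format, 25 nM in PBST pH 7.4) captured on Protein A, then 50 - 5 nM monovalent hVISTA-ECD injected in pH 7.4 or 6.0 running buffer. Reference- and blank-subtracted sensorgrams fit to 1:1 model; KD = koff/kon.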

| Binder | Kd [nM] | koff [s⁻¹] | kon [M⁻¹ s⁻¹] |
| --- | --- | --- | --- |
| B1 | 1 | 0.0015 | 1.4e+06 |

Target: T2, hVISTA-ECD 6-His tag (human, UniProt Q9H7M9 33-193)
T2 construct: also called monovalent hVISTA-ECD; human VISTA
T2 sequence (Q9H7M9 other isoform, or with tags, fused parts or gaps limits assumed): as above
Experiment: SPR; kd at pH 6.45 over kd at pH 6.0 (head prints 7.4)
Protocol: (§1) Further binding kinetic experiments were performed at various pHs on VISTA antibodies described herein by SPR as generally described in Example 9 above. Antibodies were normalized to 50 nM concentration in PBST pH 7.4 and captured on a Protein A CM5 chip (ID 4931) by injecting for 45 seconds at a 5 µL/min flow rate. An 8-point human VISTA titration ([…]) was prepared in PBST at pH 7.4, 6.9, 6.45, and 6.0. Titrations were injected over the captured antibodies for 180 seconds at 30 µL/min. Sensorgrams were fit to a 1:1 binding model in T200 evaluation software and the kinetic constants were reported.
(§2) Each table reports the data at one of the four tested pHs (7.4, 6.9, 6.45, and 6.0, respectively). The 8-point hVISTA titration used in these assays was chosen to provide increased confidence in kinetic values reported at neutral pH conditions. A relatively stringent cutoff for non-binding was applied in this assay. Certain progeny of P1-061029 antibody (P1-068757, ‘759, ‘765, ‘771, and ‘775) show no binding to hVISTA at micromolar concentrations at pH 7.4, while ‘761 and ‘767 show no binding to hVISTA at 100 nM at pH 7.4 but do show binding to hVISTA at micromolar concentrations.

| Binder | 7.4 kd/ 6.0 kd |
| --- | --- |
| B2 | 0.9 |
| B3 | 1.7 |
| B4 | 3.7 |
| B5 | 6.8 |
| B6 | 2.2 |
| B7 | 1.5 |
| B8 | 2.8 |
| B9 | 1.8 |

Target: T2, hVISTA-ECD 6-His tag
Experiment: SPR, Ab on Protein A, hVISTA analyte, pH 6.45

| Binder | Kd [nM] | koff [s⁻¹] | kon [M⁻¹ s⁻¹] |
| --- | --- | --- | --- |
| B2 | 5.13 | 0.0045 | 876000 |
| B3 | 140 | 0.018 | 130000 |
| B4 | 36 | 0.0087 | 240000 |
| B5 | 110 | 0.046 | 410000 |
| B6 | 370 | 0.022 | 61000 |
| B7 | 16.2 | 0.00309 | 190000 |
| B8 | 420 | 0.013 | 31000 |
| B9 | 220 | 0.017 | 77000 |

Target: T2, hVISTA-ECD 6-His tag
Experiment: SPR; KD at pH 6.9 over KD at pH 6.0 (head prints 7.4)
Protocol: as §1, §2

| Binder | 7.4 KD/ 6.0 KD |
| --- | --- |
| B2 | 2.5 |
| B4 | 1240 |
| B5 | 523 |
| B7 | 52.4 |

Target: T2, hVISTA-ECD 6-His tag
Experiment: SPR; KD at pH 6.45 over KD at pH 6.0 (head prints 7.4)

| Binder | 7.4 KD/ 6.0 KD |
| --- | --- |
| B2 | 1.8 |
| B3 | 5.8 |
| B4 | 6.7 |
| B5 | 7.4 |
| B6 | 11.6 |
| B7 | 6 |
| B8 | 14.2 |
| B9 | 2.8 |

Target: T1, monovalent hVISTA-ECD (amino acids …)
Experiment: SPR, pH 7.4 over pH 6.0
Protocol: as §1, §2

| Binder | 7.4 KD/ 6.0 KD | 7.4 kd/ 6.0 kd |
| --- | --- | --- |
| B10 | 0.1 | 0 |
| B11 | 696 | 7 |
| B12 | 625 | 18.9 |
| B13 | 563 | 19.4 |
| B14 | 731 | 15.3 |
| B15 | 34.5 | 8.6 |
| B16 | 396 | 14.6 |
| B1 | 212 | 9.9 |

Target: T2, hVISTA-ECD 6-His tag
Experiment: SPR, Ab on Protein A, hVISTA analyte, pH 6.0

| Binder | Kd [nM] | koff [s⁻¹] | kon [M⁻¹ s⁻¹] |
| --- | --- | --- | --- |
| B2 | 2.91 | 0.00527 | 1.81e+06 |
| B3 | 24 | 0.01 | 420000 |
| B4 | 5.4 | 0.0023 | 430000 |
| B5 | 15 | 0.0068 | 440000 |
| B6 | 32 | 0.01 | 320000 |
| B7 | 2.71 | 0.00202 | 745000 |
| B8 | 29 | 0.0045 | 150000 |
| B9 | 77 | 0.009 | 120000 |

Target: T2, hVISTA-ECD 6-His tag
Experiment: SPR, Ab on Protein A, hVISTA analyte, pH 6.9
Protocol: as §1, §2

| Binder | Kd [nM] | koff [s⁻¹] | kon [M⁻¹ s⁻¹] |
| --- | --- | --- | --- |
| B2 | 7.13 | 0.00416 | 583000 |
| B4 | 6700 | 0.015 | 2300 |
| B5 | 8100 | 0.034 | 4200 |
| B7 | 142 | 0.00832 | 58700 |

Target: T2, hVISTA-ECD 6-His tag
Experiment: SPR; kd at pH 6.9 over kd at pH 6.0 (head prints 7.4)
Protocol: as §1, §2

| Binder | 7.4 kd/ 6.0 kd |
| --- | --- |
| B2 | 0.8 |
| B4 | 6.5 |
| B5 | 4.9 |
| B7 | 4.1 |

Target: T1, monovalent hVISTA-ECD (amino acids …)
Experiment: SPR, Ab on Protein A, hVISTA 100-7.8 nM, pH 7.4
Protocol: as §1

| Binder | Kd [nM] | koff [s⁻¹] | kon [M⁻¹ s⁻¹] |
| --- | --- | --- | --- |
| B10 | 1.42 | 0.000871 | 613000 |
| B11 | 6900 | 0.016 | 2400 |
| B12 | 3400 | 0.044 | 13000 |
| B13 | 3700 | 0.038 | 10000 |
| B14 | 4400 | 0.029 | 6500 |
| B15 | 350 | 0.024 | 67000 |
| B16 | 4200 | 0.035 | 8400 |
| B1 | 920 | 0.036 | 40000 |
